Assay results taken from US20260176365A1 (SYNTHEKINE, published 2026).
Changes are numbered by the printed parent chain.

B1: mgp130_VHH13 Mono-Fc VHH (Fc fusion, not shown: a dimerising Fc or GST)
chain: QVQLQESGGGSVQPGGSLRLSCAASGFTFSTYDMSWVRQAPGKGLEWVSTINYSGSSTYYVDSVLGRFTIARDNAKNTLYLQMNNLQTEDTAVYYCASVKERRSNGHPIVFGDRGQGTQVTVSS
B2: mgp130_VHH6 Mono-Fc VHH (Fc fusion, not shown: a dimerising Fc or GST)
chain: QVQLQESGGGLVQPGGSLRLSCAASGFTLSTYWMYWVRQAPGKGPEWVSAVSRGGFNTYYADSVKGRFTISRDNAKNTVYLQMNSLKPEDTAVYYCMSSVSFYGWPPDRVPSPTGQGTQVTVSS
B3: mgp130_VHH16 Mono-Fc VHH (Fc fusion, not shown: a dimerising Fc or GST)
chain: QVQLQESGGGLVQPGGSLRLSCAASGFTFRNYAMSWVRQAPGKGLEWVSAINSGGGSTYYADSVKGRFTISRDNAKNTLYLQMNSLKPEDTAMYYCAKHVTGDYDPSLRYEYNYWSQGTQVTVSS
B4: mgp130_VHH5 Mono-Fc VHH (Fc fusion, not shown: a dimerising Fc or GST)
chain: QVQLQESGGGSVQAGGSLRLSCVISGFTYRQTFMGWFRQVVGKEREGVAAISTGGGSTIYADSVKGRFTISQDSSKDTVYLEMNGLKLEDTGMYYCAASTVITSESINRNLYQYWGQGTQVTVSS
B5: mgp130_VHH48 Mono-Fc VHH (Fc fusion, not shown: a dimerising Fc or GST)
chain: QVQLQESGGALVQPGGSLRLSCAASGFTFSYYAMKWVRQAPGKGLEWVSSISGGGGATYYADSVKGRFTISRDNTNDTLYLQMNSLKTEDTAVYYCAAQNLDYRGQGTQVTVSS
B6: mgp130_VHH44 Mono-Fc VHH (Fc fusion, not shown: a dimerising Fc or GST)
chain: QVQLQESGGGLVQPGGSLRLSCTASGFTFNSAHLKWERQPPGKGLEWVSFITNGGASTGYADSVKGRFTISRDDAKNTLYLQMNNLKTEDTAVYYCATGGLRGQGTQVTVSS
B7: mgp130_VHH13 (VHH)
VHH: B1 chain
notes: As periplasmic extract of the phage clone; also called anti-mouse gp130 VHH; not shown: HA/His tag of the pMECS phagemid
B8: mgp130_VHH6 (VHH)
VHH: B2 chain
notes: as for B7
B9: mgp130_VHH30 (VHH)
VHH: B3 chain with R30S, N31S, M83L, P88T
notes: as for B7
B10: mgp130_VHH29 (VHH)
VHH: B3 chain with R30S, N31S, G56A, M83L, P88T, Y95C, Y114C, S116G, Q117P
notes: as for B7
B11: mgp130_VHH35 (VHH)
VHH: B3 chain with R30S, N31S, M83L, P88T, V100I, S116G
notes: as for B7
B12: mgp130_VHH7 (VHH)
VHH: B3 chain with G16E, R30S, N31S, G56A, S57G, A61T, M83L, P88T, E111G, Y114V
notes: as for B7
B13: mgp130_VHH11 (VHH)
VHH: B3 chain with M83L, P88T, A97T
notes: as for B7
B14: mgp130_VHH12 (VHH)
VHH: B3 chain with R30S, N31S, M83L, P88T, Y95C, E111G, Y114C, S116G, Q117P
notes: as for B7
B15: mgp130_VHH10 (VHH)
VHH: B3 chain with A23T, Q82R, M83L, N84H, P88T
notes: as for B7
B16: mgp130_VHH43 (VHH)
VHH: B3 chain with R30S, N31S, S53L, G56D, S57T, A61T, M83L, P88T, N113G
notes: as for B7
B17: mgp130_VHH17 (VHH)
VHH: B3 chain with M83L, P88T, N113A
notes: as for B7
B18: mgp130_VHH28 (VHH)
VHH: B3 chain with R30S, N31S, N77S, M83L, P88T, A97T
notes: as for B7
B19: mgp130_VHH34 (VHH)
VHH: B3 chain with N31S, G66A, M83L, P88T, S116G
notes: as for B7
B20: mgp130_VHH42 (VHH)
VHH: B3 chain with R30S, N31S, M83L, P88T, E111G, Y114V
notes: as for B7
B21: mgp130_VHH33 (VHH)
VHH: B3 chain with R30S, N31S, L79M, M83L, P88T, T101A, Y112W, N113H, Y114V, S116G
notes: as for B7
B22: mgp130_VHH46 (VHH)
VHH: B3 chain with R30S, N31S, M83L, P88T, Y95C, V100I, Y114C, S116G
notes: as for B7
B23: mgp130_VHH20 (VHH)
VHH: B3 chain with R30S, N31S, M34V, A50T, M83L, P88T, A97T, Y114V
notes: as for B7
B24: mgp130_VHH4 (VHH)
VHH: B3 chain with R30S, N31S, G56A, S57G, A61T, M83L, P88T, Y110H, E111G, Y114V
notes: as for B7
B25: mgp130_VHH16 (VHH)
VHH: B3 chain
notes: as for B7
B26: mgp130_VHH18 (VHH)
VHH: B3 chain with L11S, P14A, R30S, N31S, G66A, M83L, P88T, E111D, S116G
notes: as for B7
B27: mgp130_VHH49 (VHH)
VHH: B4 chain with R30K, V41P, I59V, D73E, D77N, E105V, S106T, N110G
notes: as for B7
B28: mgp130_VHH47 (VHH)
VHH: B4 chain with R30K, V41P, S57N, I59V, D77N, E105V, S106T, I107V, N110G
notes: as for B7
B29: mgp130_VHH3 (VHH)
VHH: QVQLQESGGGLVQPGGSLRLSCAASGFTLSTYWIYWVRQAPGKGPEWVSTVSRSGGTTYYADSVNGRFTISRDNAKNTVYLQMNNLKPEDAAVYYCLASVSNLGWPPVRAPSPTGQGTQVTVSS
notes: as for B7
B30: mgp130_VHH38 (VHH)
VHH: QVQLQESGGGSVQAGGFLRLSCAFSGYTGCMGWFRQGPGQEREGVASINDGGSLTYADSVKGRFTISKDNAKKTLDLQMNTLKPEDTAMYYCAASLSYCLNPTLRVDGYNYWGQGTQVTVSS
notes: as for B7
B31: mgp130_VHH40 (VHH)
VHH: QVQLQESGGGLVQPGGSLRLSCAASGFTFSNYAMSWVRQAPGKGVEWVSAINSGGSVFYADSVKGRFTISRDNAKNTLYLQLSSLKTEDTAMYYCAKHVTGDYDPSLRYGYNVWSQGTQVTVSS
notes: as for B7

Each binder was assayed against hGP130-his (Sino Biological, Catalog# 10974) (human) (UniProt P40189) (assay: SPR (Biacore T200), Mono-Fc VHH captured on Protein A chip, hGP130-his in solution, 1:1 fit).
hGP130-his (Sino Biological, Catalog# 10974) (human), sequence (P40189 23-619): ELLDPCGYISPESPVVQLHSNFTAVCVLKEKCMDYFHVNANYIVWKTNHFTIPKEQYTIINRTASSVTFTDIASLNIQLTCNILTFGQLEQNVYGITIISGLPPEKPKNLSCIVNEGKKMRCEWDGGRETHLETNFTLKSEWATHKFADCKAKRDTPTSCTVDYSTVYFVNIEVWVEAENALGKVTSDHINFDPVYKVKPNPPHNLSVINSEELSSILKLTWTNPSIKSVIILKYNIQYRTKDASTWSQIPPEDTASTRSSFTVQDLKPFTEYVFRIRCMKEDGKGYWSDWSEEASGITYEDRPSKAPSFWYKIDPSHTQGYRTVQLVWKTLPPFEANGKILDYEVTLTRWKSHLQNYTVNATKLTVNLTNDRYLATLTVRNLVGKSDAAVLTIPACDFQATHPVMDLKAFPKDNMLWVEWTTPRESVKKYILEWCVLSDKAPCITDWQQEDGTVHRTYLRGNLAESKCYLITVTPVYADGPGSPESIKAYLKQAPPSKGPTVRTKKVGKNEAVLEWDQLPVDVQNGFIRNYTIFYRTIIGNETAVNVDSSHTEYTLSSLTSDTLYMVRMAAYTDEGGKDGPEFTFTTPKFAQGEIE

Binder	Kd	koff	kon
B1	35.6 nM	0.0037 s⁻¹	110000 M⁻¹ s⁻¹
B2	229 nM	0.03 s⁻¹	130000 M⁻¹ s⁻¹
B3	17.4 nM	0.00036 s⁻¹	21000 M⁻¹ s⁻¹
B4	90 nM	0.0081 s⁻¹	90000 M⁻¹ s⁻¹
B5	42 nM	0.0018 s⁻¹	43000 M⁻¹ s⁻¹
B6	6 nM	0.0012 s⁻¹	200000 M⁻¹ s⁻¹

The binders below were run against T1, mgp130 ECD antigen (mouse, UniProt Q00560 23-617) (assay: periplasmic extract ELISA (PE-ELISA) of phage clones).
T1 construct: Antigen of biopanning and PE-ELISA; The immunogen was an ECD-human IgG1 hinge-Fc fusion; also called ECD of mouse gp130; ngp130 ECD antigen (so in the source)
T1 sequence: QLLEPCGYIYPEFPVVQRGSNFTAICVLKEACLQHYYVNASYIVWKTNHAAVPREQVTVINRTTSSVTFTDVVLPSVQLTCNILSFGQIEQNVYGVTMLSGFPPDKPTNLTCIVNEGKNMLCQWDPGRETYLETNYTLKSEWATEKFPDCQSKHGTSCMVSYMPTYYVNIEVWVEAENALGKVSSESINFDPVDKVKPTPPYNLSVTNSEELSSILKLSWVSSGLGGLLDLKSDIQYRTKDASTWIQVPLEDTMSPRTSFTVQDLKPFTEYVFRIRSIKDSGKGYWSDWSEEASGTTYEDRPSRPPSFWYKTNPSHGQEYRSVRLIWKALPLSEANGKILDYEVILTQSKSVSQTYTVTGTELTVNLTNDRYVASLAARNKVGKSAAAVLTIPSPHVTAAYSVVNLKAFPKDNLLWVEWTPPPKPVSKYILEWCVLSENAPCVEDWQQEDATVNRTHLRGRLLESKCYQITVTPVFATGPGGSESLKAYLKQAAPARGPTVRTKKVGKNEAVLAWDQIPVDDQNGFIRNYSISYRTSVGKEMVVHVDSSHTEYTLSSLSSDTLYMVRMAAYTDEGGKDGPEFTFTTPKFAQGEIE

Binder	binding result
B7	binds
B8	binds
B9	binds
B10	binds
B11	binds
B12	binds
B13	binds
B14	binds
B15	binds
B16	binds
B17	binds
B18	binds
B19	binds
B20	binds
B21	binds
B22	binds
B23	binds
B24	binds
B25	binds
B26	binds
B27	binds
B28	binds
B29	binds
B30	binds
B31	binds
